± gives the uncertainty stated by the source.
Assay: self-splicing fitness, log relative to wild type (ln ratio); higher = more splicing; Tetrahymena group I intron in knt gene, E. coli kanamycin selection, DiMSum; sequences stand for … in CUCUCU…GGAGGGAAAAGUUAUCAGGCAUGCACCUGGUAGCUAGUCUUUAAACCAAUAGAUUGCAUCGGUUUAAAAGGCAAGACCGUCAAAUUGCGGGAAAGGGGUCAACAGCCGUUCAGUACCAAGUCUCAGGGGAAACUUUGAGAUGGCCUUGCAAAGGGUAUGGUAAUAAGCUGACGGACAUGGUCCUAACCACGCAGCCAAGUCCUAAGUCAACAGAUCUUCUGUUGAUAUGGAUGCAGUUCACAGACUAAAUGUCGGUCGGGGAAGAUGUAUUCUUCUCAUAAGAUAUAGUCGGACCUCUCCUUAAUGGGAGCUAGCGGAUGAAGUGAUGCAACACUGGAGCCGCUGGGAACUAAUUUGUAUGCGAAAGUAUAUUGAUUAGUUUUGGAGUACUCGUGGUCG
Method in brief: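 Six replicate transformations of E. coli BL21(DE3) with a pET-22b(+) library were grown overnight at 37°C or 30°C. The library randomised all eight P1ex-region intron nucleotides, the intron lying in the knt kanamycin-resistance gene, and plates were LB agar with or without 25 μg/mL kanamycin plus 100 μg/mL carbenicillin, 50 μM IPTG and 0.2% rhamnose. Pooled colonies were amplicon-sequenced on an Illumina HiSeq 2500, and fitness is the DiMSum error-weighted combination of wild-type-normalised replicate fold changes, kanamycin versus none.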

Sequence: GCUGAGCAAUAUUACGAGCG
- self-splicing fitness (ln) (30 °C): -0.822 ± 0.23
- self-splicing fitness (ln) (37 °C): -0.795 ± 0.21

Sequence: AUCCAGCAAUAUUACGUUCC
- self-splicing fitness (ln) (30 °C): -1.19 ± 0.13
- self-splicing fitness (ln) (37 °C): -0.575 ± 0.25

Sequence: ACUGAGCAAUAUUACGAAGG
- self-splicing fitness (ln) (30 °C): -2.53 ± 0.18
- self-splicing fitness (ln) (37 °C): -2.02 ± 0.24

Sequence: GCGUAGCAAUAUUACGAUGC
- self-splicing fitness (ln) (30 °C): -3.71 ± 0.32
- self-splicing fitness (ln) (37 °C): -1.39 ± 0.27

Sequence: CCUAAGCAAUAUUACGGCUG
- self-splicing fitness (ln) (30 °C): -3.49 ± 0.21
- self-splicing fitness (ln) (37 °C): -2.47 ± 0.3

Sequence: UACUAGCAAUAUUACGUUCG
- self-splicing fitness (ln) (30 °C): -0.992 ± 0.077
- self-splicing fitness (ln) (37 °C): -0.484 ± 0.094

Sequence: UCGGAGCAAUAUUACGCUUG
- self-splicing fitness (ln) (30 °C): -3.64 ± 0.27
- self-splicing fitness (ln) (37 °C): -2.83 ± 0.35

Sequence: GGUUAGCAAUAUUACGUUGG
- self-splicing fitness (ln) (30 °C): -4.01 ± 0.34
- self-splicing fitness (ln) (37 °C): -1.72 ± 0.18

Sequence: UCGAAGCAAUAUUACGGUCA
- self-splicing fitness (ln) (30 °C): -1.83 ± 0.11
- self-splicing fitness (ln) (37 °C): -0.525 ± 0.12

Sequence: AGUUAGCAAUAUUACGGCAC
- self-splicing fitness (ln) (30 °C): -1.47 ± 0.16
- self-splicing fitness (ln) (37 °C): -1.82 ± 0.25

Sequence: AUCGAGCAAUAUUACGCUAC
- self-splicing fitness (ln) (37 °C): -1.06 ± 0.29

Sequence: GGAGAGCAAUAUUACGGGGC
- self-splicing fitness (ln) (30 °C): -3.01 ± 0.27
- self-splicing fitness (ln) (37 °C): -2.71 ± 0.44

Sequence: GACUAGCAAUAUUACGACCA
- self-splicing fitness (ln) (30 °C): -0.781 ± 0.17
- self-splicing fitness (ln) (37 °C): 0.287 ± 0.18

Sequence: UUUAAGCAAUAUUACGGGCA
- self-splicing fitness (ln) (30 °C): -1.05 ± 0.12
- self-splicing fitness (ln) (37 °C): -0.851 ± 0.14

Sequence: CCGUAGCAAUAUUACGACUU
- self-splicing fitness (ln) (30 °C): -2.98 ± 0.37
- self-splicing fitness (ln) (37 °C): -2.67 ± 0.41

Sequence: UGCAAGCAAUAUUACGCGCU
- self-splicing fitness (ln) (30 °C): -1.28 ± 0.12
- self-splicing fitness (ln) (37 °C): -0.818 ± 0.12

Sequence: AGAGAGCAAUAUUACGCCGG
- self-splicing fitness (ln) (30 °C): -1.82 ± 0.25

Sequence: AAUCAGCAAUAUUACGAGGA
- self-splicing fitness (ln) (30 °C): -2.13 ± 0.12
- self-splicing fitness (ln) (37 °C): -1.23 ± 0.11

Sequence: UACCAGCAAUAUUACGCGAA
- self-splicing fitness (ln) (30 °C): -0.474 ± 0.063
- self-splicing fitness (ln) (37 °C): -0.386 ± 0.086

Sequence: GUCUAGCAAUAUUACGAGCA
- self-splicing fitness (ln) (30 °C): -1.29 ± 0.24
- self-splicing fitness (ln) (37 °C): -0.906 ± 0.24

Sequence: UUAAAGCAAUAUUACGGCUU
- self-splicing fitness (ln) (30 °C): -1.44 ± 0.082
- self-splicing fitness (ln) (37 °C): -0.99 ± 0.11

Sequence: GUAUAGCAAUAUUACGCGCA
- self-splicing fitness (ln) (30 °C): -1.2 ± 0.17
- self-splicing fitness (ln) (37 °C): -0.955 ± 0.14

Sequence: AGCGAGCAAUAUUACGUCUA
- self-splicing fitness (ln) (30 °C): -1.92 ± 0.13
- self-splicing fitness (ln) (37 °C): -2 ± 0.11

Sequence: UCCAAGCAAUAUUACGCCCA
- self-splicing fitness (ln) (30 °C): -0.733 ± 0.14
- self-splicing fitness (ln) (37 °C): -1.07 ± 0.21

Sequence: CCAUAGCAAUAUUACGCUUU
- self-splicing fitness (ln) (30 °C): -4.72 ± 0.28
- self-splicing fitness (ln) (37 °C): -3.1 ± 0.2

Sequence: GAGAAGCAAUAUUACGAAUU
- self-splicing fitness (ln) (30 °C): -2.27 ± 0.14
- self-splicing fitness (ln) (37 °C): -1.13 ± 0.15

Sequence: GUGCAGCAAUAUUACGCGCC
- self-splicing fitness (ln) (30 °C): -3.58 ± 0.4
- self-splicing fitness (ln) (37 °C): -1.95 ± 0.33

Sequence: AUAAAGCAAUAUUACGGUCA
- self-splicing fitness (ln) (30 °C): 0.0241 ± 0.071
- self-splicing fitness (ln) (37 °C): 0.459 ± 0.1

Sequence: AGUAAGCAAUAUUACGCAGU
- self-splicing fitness (ln) (30 °C): -4.13 ± 0.17
- self-splicing fitness (ln) (37 °C): -2.98 ± 0.19

Sequence: GUAUAGCAAUAUUACGAUAA
- self-splicing fitness (ln) (30 °C): -0.869 ± 0.12
- self-splicing fitness (ln) (37 °C): -0.771 ± 0.16

Sequence: UGUAAGCAAUAUUACGAUUC
- self-splicing fitness (ln) (37 °C): -2.35 ± 0.26

Sequence: GGUAAGCAAUAUUACGAUCU
- self-splicing fitness (ln) (30 °C): -0.636 ± 0.1
- self-splicing fitness (ln) (37 °C): 1.04 ± 0.13

Sequence: UACCAGCAAUAUUACGGGGG
- self-splicing fitness (ln) (30 °C): -2.5 ± 0.14
- self-splicing fitness (ln) (37 °C): -1.77 ± 0.13

Sequence: ACGUAGCAAUAUUACGAACA
- self-splicing fitness (ln) (30 °C): -1.56 ± 0.24
- self-splicing fitness (ln) (37 °C): -0.252 ± 0.2

Sequence: UGUGAGCAAUAUUACGCAGC
- self-splicing fitness (ln) (37 °C): -1.77 ± 0.4

Sequence: UACUAGCAAUAUUACGUUCU
- self-splicing fitness (ln) (30 °C): -2.47 ± 0.25
- self-splicing fitness (ln) (37 °C): -1.03 ± 0.19

Sequence: GUAUAGCAAUAUUACGCAUG
- self-splicing fitness (ln) (30 °C): -3.35 ± 0.24
- self-splicing fitness (ln) (37 °C): -1.01 ± 0.17

Sequence: GCUAAGCAAUAUUACGUACU
- self-splicing fitness (ln) (30 °C): -0.353 ± 0.051
- self-splicing fitness (ln) (37 °C): -0.348 ± 0.068

Sequence: CUGUAGCAAUAUUACGUCCU
- self-splicing fitness (ln) (30 °C): -3.57 ± 0.4

Sequence: CGAAAGCAAUAUUACGCUUA
- self-splicing fitness (ln) (30 °C): -2.25 ± 0.16
- self-splicing fitness (ln) (37 °C): -1.24 ± 0.14

Sequence: GUACAGCAAUAUUACGAGAA
- self-splicing fitness (ln) (30 °C): -2.36 ± 0.45
- self-splicing fitness (ln) (37 °C): -1.51 ± 0.27

Sequence: UGUAAGCAAUAUUACGACGA
- self-splicing fitness (ln) (30 °C): -0.272 ± 0.12
- self-splicing fitness (ln) (37 °C): -0.249 ± 0.11

Sequence: AGUAAGCAAUAUUACGCACA
- self-splicing fitness (ln) (30 °C): -0.655 ± 0.082
- self-splicing fitness (ln) (37 °C): -0.356 ± 0.091

Sequence: GUCAAGCAAUAUUACGGAAC
- self-splicing fitness (ln) (30 °C): -3.13 ± 0.24
- self-splicing fitness (ln) (37 °C): -3.19 ± 0.21

Sequence: CCAUAGCAAUAUUACGUCCU
- self-splicing fitness (ln) (30 °C): -2.86 ± 0.23
- self-splicing fitness (ln) (37 °C): -2.64 ± 0.48

Sequence: UCGGAGCAAUAUUACGCGGU
- self-splicing fitness (ln) (30 °C): -3.14 ± 0.23
- self-splicing fitness (ln) (37 °C): -2.94 ± 0.43

Sequence: UGUUAGCAAUAUUACGUGCA
- self-splicing fitness (ln) (30 °C): -0.172 ± 0.15
- self-splicing fitness (ln) (37 °C): 0.0583 ± 0.19

Sequence: GACUAGCAAUAUUACGGGAG
- self-splicing fitness (ln) (30 °C): -0.663 ± 0.096
- self-splicing fitness (ln) (37 °C): 0.0641 ± 0.12

Sequence: AGAGAGCAAUAUUACGUAAC
- self-splicing fitness (ln) (37 °C): -3.26 ± 0.31

From the supplement of paper PMC7877785
